Laboratory results taken from US20190321401A1 (JUNO THERAPEUTICS, published 2019).

Key:
[1] = target: T1, HPV16 E7(11-19)-peptide-MHC tetramer complex (human papillomavirus 16 (HPV16); human); assay: flow cytometry, peptide-MHC tetramer staining of TCR-transduced primary human T cells;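 further: normal donor T cells activated with anti-CD3/anti-CD28, then lentivirally transduced with TCRs, with mock-transduced cells as control, co-stained for the transduction marker and CD8, tetramers presented by HLA-A02:01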
T1 construct: also called E7(11-19)-specific tetramer; MHC/E7(11-19) peptide tetramer
Description: (§1) CD8+ and CD4+ T cells were isolated from normal human donors and were stimulated with anti-CD3/anti-CD28 reagent, and then were transduced with a lentiviral preparation encoding various TCRs, or were subjected to a mock transduction control (cells treated under the same conditions used for lentiviral transduction but without addition of lentivirus). Following transduction, the cells were cultured in media containing human serum and cytokines.
(§2) After transduction, the cells were assessed by flow cytometry for staining with an antibody that recognized the surrogate marker, an anti-CD8 antibody, and a HPV 16 E6(29-38)- or HPV16 E7(11-19)-peptide-MHC tetramer complex. […] The reference TCR contains a mouse constant region.
(§3) Column 3 and 4 sets forth the percentage of CD8+ cells and CD8− cells (CD4+ cells) positive for E7(11-19)-specific tetramer staining in flow cytometry. Column 5 and 6 sets forth the percentage of CD8+ cells and CD8− cells (CD4+ cells) positive for E6(29-38)-specific tetramer staining in flow cytometry.

[2] = target: T2, HPV 16 E6(29-38)-peptide-MHC tetramer complex (human papillomavirus 16 (HPV16); human); assay: as above
T2 construct: also called E6(29-38)-specific tetramer
Description: as §1, §2, §3

[3] = target: T3, HPV 16 E7 peptide on HLA-A*02:01 (human); assay: multimer staining
T3 peptide: YMLDLQPET

[4] = target: T4, HPV 16 E6 peptide on HLA-A*02:01 (human); assay: multimer staining
T4 peptide: TIHDIILECV

| Binder | % of CD8+ cells positive for E7(11-19) tetramer staining [1] | % of CD8- (CD4+) cells positive for E7(11-19) tetramer staining [1] | % of CD8+ cells positive for E6(29-38) tetramer staining [2] | % of CD8- (CD4+) cells positive for E6(29-38) tetramer staining [2] | binding result [3] | binding result [4] |
| --- | --- | --- | --- | --- | --- | --- |
| TCR 56 (mouse constant regions) (TCR, V domains shown, Human variable regions on mouse constant regions with added cysteines (Calpha Thr48Cys, Cbeta Ser57Cys); Entries are the full chains without signal peptide) V domain 1: GQNIDQPTEMTATEGAIVQINCTYQTSGFNGLFWYQQHAGEAPTFLSYNVLDGLEEKGRFSSFLSRSKGYSYLLLKELQMKDSASYLCAVRDWGYGGATNKLIFGTGTLLAVQP V domain 2: NAGVMQNPRHLVRRRGQEARLRCSPMKGHSHVYWYRQLPEEGLKFMVYLQKENIIDESGMPKERFSAEFPKEGPSILRIQQVVRGDSAAYFCASSPDESRDSNQPQHFGDGTRLSILE | 0.05% | 0.13% | 0.07% | 0.12% |  |  |
| TCR 56 (TCR, V domains shown) Valpha: GQNIDQPTEMTATEGAIVQINCTYQTSGFNGLFWYQQHAGEAPTFLSYNVLDGLEEKGRFSSFLSRSKGYSYLLLKELQMKDSASYLCAVRDWGYGGATNKLIFGTGTLLAVQP Vbeta: NAGVMQNPRHLVRRRGQEARLRCSPMKGHSHVYWYRQLPEEGLKFMVYLQKENIIDESGMPKERFSAEFPKEGPSILRIQQVVRGDSAAYFCASSPDESRDSNQPQHFGDGTRLSIL |  |  |  |  | no recognition | no recognition |
| TCR 59 (TCR, V domains shown) Valpha: GQQVMQIPQYQHVQEGEDFTTYCNSSTTLSNIQWYKQRPGGHPVFLIQLVKSGEVKKQKRLTFQFGEAKKNSSLHITATQTTDVGTYFCAPKREYGNKLVFGAGTILRVKS Vbeta: EPEVTQTPSHQVTQMGQEVILRCVPISNHLYFYWYRQILGQKVEFLVSFYNNEISEKSEIFDDQFSVERPDGSNFTLKIRSTKLEDSAMYFCAYSGRASYEQYFGPGTRLTVT |  |  |  |  | recognises | no recognition |
| TCR 60 (TCR, V domains shown) Valpha: QKEVEQNSGPLSVPEGAIASLNCTYSDRGSQSFFWYRQYSGKSPELIMFIYSNGDKEDGRFTAQLNKASQYVSLLIRDSQPSDSATYLCAVNMLGSGGSNYKLTFGKGTLLTVNP Vbeta: EPEVTQTPSHQVTQMGQEVILRCVPISNHLYFYWYRQILGQKVEFLVSFYNNEISEKSEIFDDQFSVERPDGSNFTLKIRSTKLEDSAMYFCAISRTVSYEQYFGPGTRLTVT |  |  |  |  | recognises | no recognition |
| TCR 62 (mouse constant regions) (TCR, V domains shown) V domain 1: AQTVTQSQPEMSVQEAETVTLSCTYDTSENNYYLFWYKQPPSRQMILVIRQEAYKQQNATENRFSVNFQKAAKSFSLKISDSQLGDTAMYFCALYTYKYIFGTGTRLKVLA V domain 2: EAGVAQSPRYKIIEKRQSVAFWCNPISGHATLYWYQQILGQGPKLLIQFQNNGVVDDSQLPKDRFSAERLKGVDSTLKIQPAKLEDSAVYLCASSLDTRGSSYNEQFFGPGTRLTVLE | 38.8% | 0.07% | 0.2% | 0.04% |  |  |
| TCR 58 (mouse constant regions) (TCR, V domains shown) V domain 1: RKEVEQDPGPFNVPEGATVAFNCTYSNSASQSFFWYRQDCRKEPKLLMSVYSSGNEDGRFTAQLNRASQYISLLIRDSKLSDSATYLCVVNRDNYGQNFVFGPGTRLSVLP V domain 2: EPEVTQTPSHQVTQMGQEVILRCVPISNHLYFYWYRQILGQKVEFLVSFYNNEISEKSEIFDDQFSVERPDGSNFTLKIRSTKLEDSAMYFCASTPRSSYEQYFGPGTRLTVTE | 9.91% | 0.1% | 0.14% | 0.11% |  |  |
| TCR 58 (TCR, V domains shown) Valpha: RKEVEQDPGPFNVPEGATVAFNCTYSNSASQSFFWYRQDCRKEPKLLMSVYSSGNEDGRFTAQLNRASQYISLLIRDSKLSDSATYLCVVNRDNYGQNFVFGPGTRLSVLP Vbeta: EPEVTQTPSHQVTQMGQEVILRCVPISNHLYFYWYRQILGQKVEFLVSFYNNEISEKSEIFDDQFSVERPDGSNFTLKIRSTKLEDSAMYFCASTPRSSYEQYFGPGTRLTVT |  |  |  |  | recognises | no recognition |
| TCR 60 (mouse constant regions) (TCR, V domains shown) V domain 1: QKEVEQNSGPLSVPEGAIASLNCTYSDRGSQSFFWYRQYSGKSPELIMFIYSNGDKEDGRFTAQLNKASQYVSLLIRDSQPSDSATYLCAVNMLGSGGSNYKLTFGKGTLLTVNP V domain 2: EPEVTQTPSHQVTQMGQEVILRCVPISNHLYFYWYRQILGQKVEFLVSFYNNEISEKSEIFDDQFSVERPDGSNFTLKIRSTKLEDSAMYFCAISRTVSYEQYFGPGTRLTVTE | 21.5% | 0.13% | 0.15% | 0.07% |  |  |
| TCR 61 (mouse constant regions) (TCR, V domains shown) V domain 1: QKEVEQNSGPLSVPEGAIASLNCTYSDRGSQSFFWYRQYSGKSPELIMFIYSNGDKEDGRFTAQLNKASQYVSLLIRDSQPSDSATYLCAVNIENNNARLMFGDGTQLVVKP V domain 2: EPEVTQTPSHQVTQMGQEVILRCVPISNHLYFYWYRQILGQKVEFLVSFYNNEISEKSEIFDDQFSVERPDGSNFTLKIRSTKLEDSAMYFCASTKRFSYEQYFGPGTRLTVTE | 17.2% | 0.13% | 0.15% | 0.12% |  |  |
| TCR 59 (mouse constant regions) (TCR, V domains shown) V domain 1: GQQVMQIPQYQHVQEGEDFTTYCNSSTTLSNIQWYKQRPGGHPVFLIQLVKSGEVKKQKRLTFQFGEAKKNSSLHITATQTTDVGTYFCAPKREYGNKLVFGAGTILRVKS V domain 2: EPEVTQTPSHQVTQMGQEVILRCVPISNHLYFYWYRQILGQKVEFLVSFYNNEISEKSEIFDDQFSVERPDGSNFTLKIRSTKLEDSAMYFCAYSGRASYEQYFGPGTRLTVTE | 28% | 0.16% | 0.11% | 0.16% |  |  |
| TCR 63 (mouse constant regions) (TCR, V domains shown) V domain 1: SQELEQSPQSLIVQEGKNLTINCTSSKTLYGLYWYKQKYGEGLIFLMMLQKGGEEKSHEKITAKLDEKKQQSSLHITASQPSHAGIYLCGADIDDYKLSFGAGTTVTVRA V domain 2: GAGVSQSPRYKVAKRGQDVALRCDPISGHVSLFWYQQALGQGPEFLTYFQNEAQLDKSGLPSDRFFAERPEGSVSTLKIQRTQQEDSAVYLCASRPRQGYNDNEQFFGPGTRLTVLE | 0.3% | 0.25% | 0.23% | 0.12% |  |  |
| TCR 63 (TCR, V domains shown) Valpha: SQELEQSPQSLIVQEGKNLTINCTSSKTLYGLYWYKQKYGEGLIFLMMLQKGGEEKSHEKITAKLDEKKQQSSLHITASQPSHAGIYLCGADIDDYKLSFGAGTTVTVRA Vbeta: GAGVSQSPRYKVAKRGQDVALRCDPISGHVSLFWYQQALGQGPEFLTYFQNEAQLDKSGLPSDRFFAERPEGSVSTLKIQRTQQEDSAVYLCASRPRQGYNDNEQFFGPGTRLTVL |  |  |  |  |  | no recognition |
| TCR 65 (mouse constant regions) (TCR, V domains shown) V domain 1: EDQVTQSPEALRLQEGESSSLNCSYTVSGLRGLFWYRQDPGKGPEFLFTLYSAGEEKEKERLKATLTKKESFLHITAPKPEDSATYLCAVQAERGSTLGRLYFGRGTQLTVWP V domain 2: DVKVTQSSRYLVKRTGEKVFLECVQDMDHENMFWYRQDPGLGLRLIYFSYDVKMKEKGDIPEGYSVSREKKERFSLILESASTNQTSMYLCASSLWGRRNTGELFFGEGSRLTVLE | 0.26% | 0.07% |  |  |  |  |
| TCR 57 (mouse constant regions) (TCR, V domains shown) V domain 1: TQLLEQSPQFLSIQEGENLTVYCNSSSVFSSLQWYRQEPGEGPVLLVTVVTGGEVKKLKRLTFQFGDARKDSSLHITAAQPGDTGLYLCAGARNFNKFYFGSGTKLNVKP V domain 2: GAVVSQHPSWVICKSGTSVKIECRSLDFQATTMFWYRQFPKQSLMLMATSNEGSKATYEQGVEKDKFLINHASLTLSTLTVTSAHPEDSSFYICSARSWRGGLEQFFGPGTRLTVLE | 95% | 86% | 0.23% | 0.19% |  |  |
| TCR 64 (mouse constant regions) (TCR, V domains shown) V domain 1: AQKVTQAQTEISVVEKEDVTLDCVYETRDTTYYLFWYKQPPSGELVFLIRRNSFDEQNEISGRYSWNFQKSTSSFNFTITASQVVDSAVYFCALSGVDNYGQNFVFGPGTRLSVLP V domain 2: DTAVSQTPKYLVTQMGNDKSIKCEQNLGHDTMYWYKQDSKKFLKIMFSYNNKELIINETVPNRFSPKSPDKAHLNLHINSLELGDSAVYFCASSQGEAGANVLTFGAGSRLTVLE | 0.13% | 0.06% | 0.17% | 0.11% |  |  |
| TCR 64 (TCR, V domains shown) Valpha: AQKVTQAQTEISVVEKEDVTLDCVYETRDTTYYLFWYKQPPSGELVFLIRRNSFDEQNEISGRYSWNFQKSTSSFNFTITASQVVDSAVYFCALSGVDNYGQNFVFGPGTRLSVLP Vbeta: DTAVSQTPKYLVTQMGNDKSIKCEQNLGHDTMYWYKQDSKKFLKIMFSYNNKELIINETVPNRFSPKSPDKAHLNLHINSLELGDSAVYFCASSQGEAGANVLTFGAGSRLTVL |  |  |  |  |  | no recognition |
